# Test results taken from patent US11077159B2, “Compositions from halophyte plants and methods of use thereof” (KHALIFA UNIVERSITY OF SCIENCE AND TECHNOLOGY, priority 2017, dated 2021).
# Several values for one entry are separate records, joined by “and”; a condition that tells them apart may be missing. Equal entries are not always repeated.
# B1: EGF: control (EGF) at 10 ng/ml in the wound recovery assay (protein, UniProt P01133 23-1207, looked up)
# Pro-epidermal growth factor: PQHWSCPEGTLAGNGNSTCVGPAPFLIFSHGNSIFRIDTEGTNYEQLVVDAGVSVIMDFHYNEKRIYWVDLERQLLQRVFLNGSRQERVCNIEKNVSGMAINWINEEVIWSNQQEGIITVTDMKGNNSHILLSALKYPANVAVDPVERFIFWSSEVAGSLYRADLDGVGVKALLETSEKITAVSLDVLDKRLFWIQYNREGSNSLICSCDYDGGSVHISKHPTQHNLFAMSLFGDRIFYSTWKMKTIWIANKHTGKDMVRINLHSSFVPLGELKVVHPLAQPKAEDDTWEPEQKLCKLRKGNCSSTVCGQDLQSHLCMCAEGYALSRDRKYCEDVNECAFWNHGCTLGCKNTPGSYYCTCPVGFVLLPDGKRCHQLVSCPRNVSECSHDCVLTSEGPLCFCPEGSVLERDGKTCSGCSSPDNGGCSQLCVPLSPVSWECDCFPGYDLQLDEKSCAASGPQPFLLFANSQDIRHMHFDGTDYGTLLSQQMGMVYALDHDPVENKIYFAHTALKWIERANMDGSQRERLIEEGVDVPEGLAVDWIGRRFYWTDRGKSLIGRSDLNGKRSKIITKENISQPRGIAVHPMAKRLFWTDTGINPRIESSSLQGLGRLVIASSDLIWPSGITIDFLTDKLYWCDAKQSVIEMANLDGSKRRRLTQNDVGHPFAVAVFEDYVWFSDWAMPSVMRVNKRTGKDRVRLQGSMLKPSSLVVVHPLAKPGADPCLYQNGGCEHICKKRLGTAWCSCREGFMKASDGKTCLALDGHQLLAGGEVDLKNQVTPLDILSKTRVSEDNITESQHMLVAEIMVSDQDDCAPVGCSMYARCISEGEDATCQCLKGFAGDGKLCSDIDECEMGVPVCPPASSKCINTEGGYVCRCSEGYQGDGIHCLDIDECQLGEHSCGENASCTNTEGGYTCMCAGRLSEPGLICPDSTPPPHLREDDHHYSVRNSDSECPLSHDGYCLHDGVCMYIEALDKYACNCVVGYIGERCQYRDLKWWELRHAGHGQQQKVIVVAVCVVVLVMLLLLSLWGAHYYRTQKLLSKNPKNPYEESSRDVRSRRPADTEDGMSSCPQPWFVVIKEHQDLKNGGQPVAGEDGQAADGSMQPTSWRQEPQLCGMGTEQGCWIPVSSDKGSCPQVMERSFHMPSYGTQTLEGGVEKPHSLLSANPLWQQRALDPPHQMELTQ
# modifications: Pro-epidermal growth factor
# notes: control (EGF) at 10 ng/ml in the wound recovery assay
# Test system: NHEK
# Assay: Migration/proliferation of NHEK, wound recovery by kinetic image analysis
# Type: cell-based, human
# Conditions: 10 ng/ml, single image
# Method: Botanical extracts were evaluated for anti-aging, cell renewal and anti-inflammatory properties via systemic application (diluted in the culture medium) using the concentrations that were determined not toxic for skin cells (0.1 mg/ml) followed by two successive 3-fold dilutions. The matrix metalloproteinase-1 (MMP-1) assay using a specific ELISA kit was used to evaluate anti-aging properties. The migration/proliferation of NHEK using kinetic image analysis of the wound recovery was used to evaluate cell renewal properties. The IL-8 release on NHEK stimulated by PMA using a specific ELISA kit was used to evaluate anti-inflammatory properties.
molecule,measurement,setting,value
B1,Wound area,16 hours,0.86 mm^2 and 0.69 mm^2 and 0.89 mm^2
same,Wound area,24 hours,0.64 mm^2 and 0.44 mm^2 and 0.63 mm^2
